From patent US20140287419A1, “Compositions Having Dicamba Decarboxylase Activity and Methods of Use” (priority 2013, published 2014)

B1: 90 (protein)
chain: MAATIDRVLYLGNATQRRYTSATVSVPRIFGKVALEEHVGTSIWAKYNLTPPANAVVGVLNRPPTLPNTLDTIARLDDINGRLSSMNHSGIGYVIVSLSSPGIQGVHDTALAIKFSTDINDELYLKYANAYPDKFAFFATVPMQDPVAAASELERAVSLLGAKGAAINGYTDIGPPGNSTTRYLDDPINAPFWSKVAALNVPIYLHPRAPPPSQQLVYNYPNNSLSAYPGLVTGGFAYGAETAVHALRLMLSGLFDTHPNIQIILGHAAEGLPFLIHRSDTQLAAEVPGTNGPYKRPLRYYLRNNFYATLSGVRRLSTTQCTLAEMGEERVLFSVDYPFQSNEDAADWFDGVEGMSVETKRKVARGNARRLFNLTVDLDERQIDGDFM
modifications: Pyrenophora tritici-repentis
B2: 98 (protein)
chain: MAIIDCHGHYTTAPAAHDAFRKAQIAHHDDPQQPAPQYPHISDDALRESIEQHQLRLLRERGADMTIFSPRASTMAHHIGNEAVSQVWTQRCNDLIARVVQLYPHTFIGVCQLPQSPGVPISHSIAELERCVNELGFVGCNLNPDPSGGHWNGVPLTDRAWYPFFEKMVELDVPAMVHVSGSCNANFHATGAHYLNADTTAFMQFLEGDLFRDFPSLRFIIPHGGGAVPYHWGRFRGLADMLGKPPLATHVMRNVFFDTCVYHQPGIDLLFEVIDIDNILFGSEMVGAVRGIDPQTGHYFDDTKRYIDALTISDADKRKVFEGNARRVYPRLDAQLRARGL
modifications: Xanthomonas campestris pv.
B3: 97 (protein, listed as Sphingobium sp.)
chain: MAMMIIDCHGHYTVLPKAHDEWREQQKAAFKAGQPAPPYPEISDDEIRETIEANQLRLIKERGADMTIFSPRASAMAPHVGDQSVAVPWAQACNNLIARVVDLFPETFAGVCMLPQSPEADMTSSIAELERCVNELGFIGCNLNPDPGGGHFKHPPLTDRFWYPFYEKMVELDVPAMIHVSGSCNPAMHATGAYYLAADTIAFMQLLQGNLFADFPTLRFIIPHGGGAVPYHWGRFRGLADMLKQPSLDTLLMNNVFFDTCVYHQPGINLLADVIDNKNILFGSEMVGAVRGIDPTTGHYFDDTKRYIDALDISDQERHAIFEGNTRRVFPRLDAKLKARGL
B4: 102 (protein, listed as Lactobacillus plantarum)
chain: MATKTFKTLDDFLGTHFIYTYDNGWEYEWYAKNDHTVDYRIHGGMVAGRWVTDQKADIVMLTEGIYKISWTEPTGTDVALDFMPNEKKLHGTIFFPKWVEEHPEITVTYQNEHIDLMEQSREKYATYPKLVVPEFANITYMGDAGQNNEDVISEAPYKEMPNDIRNGKYFDQNYHRLNK
B5: 93 (protein, listed as Mucilaginibacter paludis)
chain: MAKYGKHITINKNMRIVTLEEHISFPEMADQIPKAALGSFGRSEAMQRIAPKLADITGERLKSMDANGISMQVLSVDSSGVNLLSPQQGPAFATQYNDLIANRIAGFEKRFTAFAHLPMTAPFAAADELERAVKEHHFCGAMIRGLTGDQFLDHPQFAPIFERAQKLDVPIYLHPGLPPKGVADIYYSGLPNYSGMAEALACYGWGWHSETALHVLRLLFSGIFDQYPKLKLVIGHMGEMLPMMMARSEKAFKPGNGGANVRTLTDTFRSQVYLTTSGFFTQPPLKIALDTFGIDHVMFSVDYPFSTNEMGIEFLNEIDLPDEEVARIAHGNADKLLNLKA
B6: 99 (protein, listed as Ralstonia solanacearum)
chain: MAIIDCHGHFTTAPTALEDWRKRQIANLATPALGPSPDDLKISDDALTEAIRANQLRLMQARGSDLTIFSPRASFMAHHIGDFHTSATWAAICNALCHRVSQLFPDHFVGAAMLPQSPGVDIRTCIPELARCIVDYGFVGVNLNPDPSGGHWTSPPLSDPYWFPLYEKLVEYDVPAMIHVSTSCNACFHTTGAHYLNADTTAFMQVLTSDLFRRFPTLKFVIPHGGGAVPYHWGRFRGLAQELKTPPLQEHLLHNVFFDTCVYHQPGIDLLTRVIPVDNILFASEMIGAVRGIDPETGHPFDDTRRYIDQAHTLSAEDRHKIYEGNARRVYPRLDARLKARGR
B7: 7 (protein, listed as Legionella pneumophila)
chain: MAIVDFETHFITEACIDYLTQRQEVPKLVPELNGAYTMCFTPDVSLFHTSALMEELLSLNEQRLAIMDQAGVTIQVLSLTTINGIDSCPGDENKSTALAREVNDQLYSAIQRHPERFKGFASISPYDVKEGVKELERAISQLGFVGWLTHSNFGEDNYLDDKTYWPLLEAAEGLNIPIYLHPNVPIMREFGKYGFALGGSALGFEFDTALCLMRMILGGVFDAFPKLKIMLGHLGETMPFLMERLDHLYRIPDLKAYRPSIQRIPSEVLRQNVYITTSGRFFVPALRYVLEVMGEDRVLFASDYPMESLLDATRFIQDSDLSNQTKQKIFSINAKNLNLI
B8: 101 (protein, listed as Aquifex aeolicus)
chain: MAQKIALCITGASGVIYGIKLLQVLEELDFSVDLVISRNAKVVLKEEHSLTFEEVLKGLKNVRIHEENDFTSPLASGSRLVHYRGVYVVPCSTNTLSCIANGINKNLIHRVGEVALKERVPLVLLVREAPYNEIHLENMLKITRMGGVVVPASPAFYHKPQSIDDMINFVVGKLLDVLRIEHNLYKRWRG
B9: 96 (protein)
chain: MAPLIVDVHTHVYPPAYMQMLRSRKTVPYVHDPSNNRDPRLIILSSDDDASIPLDQRGRPVDSSYWDINVKLSFMRQHGINCSVISLANPWLDFVEPAEAQMWAERINDDLEKTCATVNKAADPGNTLTLDQKETLFAFGALPLSAPSSESVVAEIKRLKTLEHLRGVIMGTSGLGKGLDDARLDPVWEALQETDMLMFLHPHYGLPEEAYGGPETTGRYGHVLPLALGFPLETTIAVTRMLLSGVFDRFPRLKILLAHSGGTLPFLAGRIESCILHERKFISGGGDVQGPQRSVWDVLKTNIYLDAVVYGKPGLEAAMTASGSDRLLFGTDHPFFPPLDSKDNSWPSVTTNYQAIHATFDTNSKTVADVLGGNAARILNLK
modifications: Aspergillus nidulans
B10: 92 (protein, listed as Chitinophaga pinensis)
chain: MARIVTLEEHVSFPEMTALLPEEILKNRKQSGAALQMQEKLADITGERLTSMKAAGISMQVLSVENTDVYLLPDSLAPAFAAKYNDLLADKISSHSDAFAAFAMLPMTVPEAAADELERAVKTHGFCGAMIKGLINGVFLDAPKFAPVFACAEKLGVPLYIHPGIPPKEVIDAYYSNVGDTKGPNEAIACYGWGWHSETAIHILRLLAAGIFDKYPQLNIIIGHMGEMLPMMWERSNRVFQPGNNGKNQRTLIETFRKQLYITTSGIFTQPPLQIAIDTIGIDNILFSIDYPFSSNQMGIDFLTKAALPAEQLAKMAHGNADRILKF
B11: 94 (protein, listed as Bacillus thuringiensis)
chain: MANRGDSNMKSLVGVIMGSTSDWETMKYACDILDELNIPYEKKVVSAHRTPDYMFEYAETARERGLKVIIAGAGGAAHLPGMVAAKTNLPVIGVPVQSKALNGLDSLLSIVQMPGGVPVATVAIGKAGSTNAGLLAAQILGSFHDDIHDALELRREAIEKDVREGSELV
B12: 104 (protein)
chain: MANILQEPIDFLKKEELKNIDLSQMSKKERYKIWKRIPKCELHCHLDLCFSADFFVSCIRKYNLQPNLSDEEVLDYYLFAKGGKSLGEFVEKAIKVADIFHDYEVIEDLAKHAVFNKYKEGVVLMEFRYSPTFVAFKYNLDIELIHQAIVKGIKEVVELLDHKIHVALMCIGDTGHEAANIKASADFCLKHKADFVGFDHGGHEVDLKEYKEIFDYVRESGVPLSVHAGEDVTLPNLNTLYSAIQVLKVERIGHGIRVAESQELIDMVKEKNILLEVCPISNVLLKNAKSMDTHPIRQLYDAGVKVSVNSDDPGMFLTNINDDYEELYTHLNFTLEDFMKMNEWALEKSFMDSNIKDKIKNLYF
modifications: Plasmodium Vivax
B13: 8 (protein, listed as Metarhizium anisopliae)
chain: MARGKINFEEAFELPTLADSSREQAALYIAPKDLDRYIYHIKHPLGERLQLANSHGIGYTIYSLTVPGIQGIPDQSKAEQHATTVNDWIANEIKDHRDRLGAFAALSMHDAAQAAAELERCVRQHGFHGALLNNYQHAGPDGETYLFYDQPAYDVFWQKCVELDVPVYLHPAAPAGNYYKQMYAQRKYLVGPPLSFANDVSLHLLGLVTNGVFDRFPKLKVVVGHLGEHIPFDFWRISHWLEDVERPLAAGRGDVMSKKDLLYYFKNNIWVTTSGHFSTPTVRYVADYLGPERIMFSVDTPYETIENGVGWFDGEEDALTRALGGEDGYKKVARENAKKLFKLTKYHDCDA
B14: 103 (protein)
chain: MAMEIPTEEIKFLKKEDVQNIDLNGMSKKERYEIWRRIPKVELHCHLDLTFSAEFFLKWARKYNLQPNMSDDEILDHYLFTKEGKSLAEFIRKAISVSDLYRDYDFIEDLAKWAVIEKYKEGVVLMEFRYSPTFVSSSYGLDVELIHKAFIKGIKNATELLNNKIHVALICISDTGHAAASIKHSGDFAIKHKHDFVGFDHGGREIDLKDHKDVYHSVRDHGLHLTVHAGEDATLPNLNTLYTAINILNVERIGHGIRVSESDELIELVKKKDILLEVCPISNLLLNNVKSMDTHPIRKLYDAGVKVSVNSDDPGMFLSNINDNYEKLYIHLNFTLEEFMIMNNWAFEKSFVSDDVKSELKALYF
modifications: Plasmodium yoelii yoelii
B15: 91 (protein, listed as Botryotinia fuckeliana)
chain: MASFVCNFGKAALATLLLTPSISAADYTPQETVLNSGRPTFYDASTSIPGKIALEEHVGNDLLNGLYTVPYYPNTNEPQYSDSVYIADVGEKMLDIPSRIANMDAANISISVLTFGGPGIQGVFNATYATYAAGYVNDYLYKNYKNNANYTGRFEFWCSNALQEPSKAATELERCVKELGGVGSFVGGYTNNGGINGTANDIVYLDDPSMEPFLEKVVELDVPIYLHPRMPAPSQLLSVKGYEFLGSSPWGFSSETGAHALRLMVSGTLDKYPTLKIVLGHCGEGLPFFLPRIDQRLRHFKKELFNNTLTMEEYWLRNFYVTTAGVQDAGTLVDTIKRTGEDRVMFSVDYPFEDTVEIAGWFDRLEMNTLTKTKLAYENAKALLKLTCYVDAEKRPRIFNKHHVDDIIKHTHSPCIWTLFH

Assay: 14C assay with IPTG-induced recombinant E. coli cells (14CO2 capture from [14C]-carboxyl-labeled dicamba)
Details: for Dicamba Decarboxylase Activity: IPTG-induced recombinant E. coli cells, [14C]-carboxyl-labeled dicamba, 14CO2 capture; for Enzymatic Detection level: dicamba decarboxylation activity of the protein of the given SEQ ID NO

Molecule	Dicamba Decarboxylase Activity	Enzymatic Detection level
B1	Low	Low
B2	No	No
B3	No	No
B4	No	No
B5	Low	Low
B6	No	No
B7	No	No
B8	No	No
B9	No	No
B10	Yes	High
B11	No	No
B12	No	No
B13	Low	Low
B14	No	No
B15	Low	Low
